Laboratory results as given in the supplement of paper PMC7125110.
± gives the standard error. Variants at the floor of the assay were thinned out.

B1: glmS ribozyme (parent)
chain: AUAAAAGCGCCAGAACUACAGAAAUGUAGUUGACGAGGAGGAGGUUUAUCGAAUUUUCGGCGGAUGCCUCCAAA

Experiments:
Details in all cases: with glucosamine-6-phosphate
glucosamine-6-phosphate [1] = variants of: B1; experiment: self-cleavage kobs at 640 uM GlcN6P; higher = faster cleavage; RNA array
Procedure, shortened: (§1)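 Barcoded ribozyme variants were transcribed in situ on sequenced MiSeq chips by E. coli RNA polymerase. At 37 °C, a hybridised Cy3 probe tracked them while glucosamine-6-phosphate (40 μM to 10 mM) in HEPES/KCl/Mg(OAc)2 buffer flowed in and tiles were imaged over ~14 h. Per-tile medians of signals normalised to baseline and to non-cleaving reference variants were fit to one- or two-exponential decays, giving kobs. kcat and KM came from weighted Michaelis–Menten fits across concentrations.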

glucosamine-6-phosphate [2] = variants of: B1; experiment: self-cleavage kobs at 2500 uM GlcN6P; higher = faster cleavage; RNA array
Procedure, shortened: as §1

glucosamine-6-phosphate [3] = variants of: B1; experiment: self-cleavage kobs at 10000 uM GlcN6P; higher = faster cleavage; RNA array
Procedure, shortened: as §1

| Variant | self-cleavage kobs at 640 uM GlcN6P (glucosamine-6-phosphate [1]) [s⁻¹] | self-cleavage kobs at 2500 uM GlcN6P (glucosamine-6-phosphate [2]) [s⁻¹] | self-cleavage kobs at 10000 uM GlcN6P (glucosamine-6-phosphate [3]) [s⁻¹] |
| --- | --- | --- | --- |
| G32U A52U C58U C61U | < 1e-05 | < 1e-05 |  |
| A39C C58G G63U U65A C71G | < 1e-05 | < 1e-05 | < 1e-05 |
| A42C U49C C58U | < 1e-05 | < 1e-05 |  |
| G40C C50U G60C | < 1e-05 |  | < 1e-05 |
| A36U G38A A52U C67G | 4.67e-05 ± 1.8e-05 | 4.17e-05 ± 2.1e-05 |  |
| C34A G44C C58U | < 1e-05 | < 1e-05 |  |
| A33C A42U C67A | < 1e-05 |  |  |
| A39G G40U C50U | < 1e-05 | < 1e-05 | < 1e-05 |
| C34A G51A A52G | < 1e-05 | < 1e-05 |  |
| G32U A33G G38A | < 1e-05 |  |  |
| G37A G40U G43C | < 1e-05 |  |  |
| G38C G43U A64C | < 1e-05 | < 1e-05 |  |
| G32U G38C C68U | < 1e-05 |  |  |
| G35A A48C U54A C70A | < 1e-05 |  | < 1e-05 |
| G40U U47C A53C U54A | 7.34e-05 ± 2.8e-05 | 0.000202 ± 3.7e-05 |  |
| A36U A52U | < 1e-05 | < 1e-05 |  |
| G37C A53C G60A | < 1e-05 |  |  |
| G35A G40U C68U | < 1e-05 |  |  |
| A33C A48C | < 1e-05 | < 1e-05 |  |
| A36C G41U A64C | < 1e-05 | < 1e-05 |  |

| Variant | self-cleavage kobs at 640 uM GlcN6P (glucosamine-6-phosphate [1]) [s⁻¹] | self-cleavage kobs at 2500 uM GlcN6P (glucosamine-6-phosphate [2]) [s⁻¹] | self-cleavage kobs at 10000 uM GlcN6P (glucosamine-6-phosphate [3]) [s⁻¹] |
| --- | --- | --- | --- |
| G40A U57A C71U | 6.1e-05 ± 2.3e-05 | 0.000149 ± 3.4e-05 |  |
| A36G A39C U47G | < 1e-05 | < 1e-05 | < 1e-05 |
| G41U A53U U69G | < 1e-05 |  |  |
| G40A A42G U46A | 0.000129 ± 4.5e-05 | 0.000599 ± 0.0003 | 0.00096 ± 0.00023 |
| C34G A39C U46A | < 1e-05 |  |  |
| G41C U46A G60C | < 1e-05 | < 1e-05 |  |
| A36G G38U C50A G62A | < 1e-05 |  |  |
| G37C C68U U69G | 6e-05 ± 2e-05 |  |  |
| A36U U45A C50U U54C U57A | < 1e-05 | < 1e-05 |  |
| G38C G41U C67U | < 1e-05 |  |  |
| G41A A48C A52U | < 1e-05 |  |  |
| A33U G41A G44A A64U | < 1e-05 | < 1e-05 | < 1e-05 |
| G40U C50U G63A C67A | < 1e-05 | < 1e-05 |  |
| G38U G41A U47C | < 1e-05 | < 1e-05 |  |
| A36C A42G G43A C67G | < 1e-05 |  |  |
| A42C A53U U56G | < 1e-05 |  |  |
| G32C G35A A64C C70A | < 1e-05 | < 1e-05 |  |
| G37U G38A G41U U49A A52U G59U C67A | < 1e-05 |  |  |
| G38C A48C | < 1e-05 | < 1e-05 | < 1e-05 |
| G32A A53C C58U C71A | < 1e-05 |  |  |

| Variant | self-cleavage kobs at 640 uM GlcN6P (glucosamine-6-phosphate [1]) [s⁻¹] | self-cleavage kobs at 2500 uM GlcN6P (glucosamine-6-phosphate [2]) [s⁻¹] | self-cleavage kobs at 10000 uM GlcN6P (glucosamine-6-phosphate [3]) [s⁻¹] |
| --- | --- | --- | --- |
| A33G C34U G40A A42U C68A | < 1e-05 | < 1e-05 |  |
| G40U G44U C68U | < 1e-05 |  |  |
| G35A C58A | < 1e-05 | < 1e-05 |  |
| A33G G38U U65A C70G | 7.69e-05 ± 2.1e-05 |  |  |
| A33G U57A | < 1e-05 | < 1e-05 |  |
| G40U U55A C71A | 0.00279 ± 0.00086 |  | 0.0227 ± 0.0049 |
| A33G A39G G41A | < 1e-05 |  |  |
| G32A U54A C68A | 0.000374 ± 0.00012 | 0.000108 ± 4.1e-05 |  |
| G37A U55G C70U | 0.000222 ± 4.2e-05 | 0.000106 ± 3e-05 |  |
| G41A U57C C67A | < 1e-05 | < 1e-05 |  |
| G37A U54C C70U | 0.000626 ± 0.00016 | 0.00117 ± 0.00025 |  |
| G32A C58G C68U | 5.31e-05 ± 2.4e-05 | 8.37e-05 ± 2.3e-05 |  |
| G35U G41A A64G | < 1e-05 | < 1e-05 |  |
| G35U U45G C61A | < 1e-05 | < 1e-05 |  |
| C34U U57A | < 1e-05 | < 1e-05 |  |
| A33C U45C U47A A48G | < 1e-05 |  |  |
| G32A G51U A52U G60C G62C | < 1e-05 |  |  |
| G38A G44C C67U C71A | < 1e-05 | < 1e-05 |  |
| A36U A39G U45G C61U G62C | < 1e-05 | < 1e-05 | < 1e-05 |
| G38A A48C | < 1e-05 | < 1e-05 | < 1e-05 |
